# Reference: US9750803B2, “Lipid vesicle compositions and methods of use” (priority 2010, dated 2017)
# B1: soluble VMP: recombinant vivax malaria protein (VMP001, SEQ ID NO:1) given as soluble protein with MPLA, Montanide or alum (protein)
# chain: THCGHNVDLSKAINLNGVNFNNVDASSLGAAHVGQSASRGRGLGENPDDEEGDAKKKKDGKKAEPKNPRENKLKQPGDRADGQAAGNGAGGQPAGDRAAGQPAGDRAAGQPAGDGAAGQPAGDRADGQPAGDRADGQPAGDRAAGQAAGNGAGGQAAANGAGNQPGGGNAANKKAEDAGGNAGGNAGGQGQNNEGANAPNEKSVKEYLDKVRATVGTEWTPCSVTCGVGVRVRRRVNAANKKPEDLTLNDLETDVCT
# modifications: VMP Amino Acid Sequence
# B2: ovalbumin (protein, UniProt P01012 2-386, looked up)
# Ovalbumin: GSIGAASMEFCFDVFKELKVHHANENIFYCPIAIMSALAMVYLGAKDSTRTQINKVVRFDKLPGFGDSIEAQCGTSVNVHSSLRDILNQITKPNDVYSFSLASRLYAEERYPILPEYLQCVKELYRGGLEPINFQTAADQARELINSWVESQTNGIIRNVLQPSSVDSQTAMVLVNAIVFKGLWEKAFKDEDTQAMPFRVTEQESKPVQMMYQIGLFRVASMASEKMKILELPFASGTMSMLVLLPDEVSGLEQLESIINFEKLTEWTSSNVMEERKIKVYLPRMKMEEKYNLTSVLMAMGITDVFSSSANLSGISSAESLKISQAVHAAHAEINEAGREVVGSAEAGVDAASVSEEFRADHPFLFCIKHIATNAVLFFGRCVSP
# Key:
# C57Bl/6 mice [1] = test: Example 2 vaccination: tetramer+ OVA-specific CD8+ T-cells in PBMCs; format: in vivo, mouse; conditions: mixed with 0.1 μg MPLA
# Method: (§1) Vaccination study with ICMVs. Groups of C57Bl/6 mice (Jackson Laboratories) were immunized s.c. in the tail base with indicated doses of OVA (with or without TLR agonist MPLA). Frequencies of OVA-specific CD8^+ T-cells and their phenotypes elicited by immunization were determined by flow cytometry analysis of PBMCs at selected time points following staining with DAPI (to discriminate live/dead cells), anti-CD8 alpha, anti-CD44, anti-CD62L, and […]/H-2K^b peptide-MHC tetramers (Becton Dickinson). To assess functionality of primed CD8^+ T-cells, PBMCs were stimulated ex vivo with 1 μM OVA-peptide […] for 6 hrs with GolgiPlug (Becton Dickinson), fixed, permeabilized, stained with anti-IFN-gamma and CD8 alpha, and analyzed by flow cytometry. Anti-OVA IgG titers, defined as the dilution of sera at which 450 nm OD reading is 0.5, were determined by ELISA analysis of sera from immunized mice. Animals were cared for following NIH, state, and local guidelines.
# C57Bl/6 mice [2] = test: Example 2 vaccination: anti-OVA IgG serum titers by ELISA; format: in vivo, mouse; conditions: low dose of MPLA (0.1 μg), two boosts, day 56
# Method: as §1
# [3] = system: OVA-specific naïve OT-I CD8+ T-cells; test: CFSE dilution proliferation assay of OT-I CD8+ T-cells co-cultured with pulsed splenic DCs; format: cell-based; conditions: DCs pulsed with 0.7 μg/mL OVA equivalent, 0.1 μg/mL MPLA, day 3
# Method: FIGS. 7A-7C. In vitro stimulation of immune responses by ICMVs supplemented with the TLR agonist MPLA. (A) Flow cytometry analysis of expression of the cell surface costimulatory markers CD40, CD80, and CD86 on splenic dendritic cells (DCs) after 18 hr incubation with 0.7 μg/mL soluble OVA, equivalent doses of OVA loaded in ICMVs, or ICMVs loaded with an irrelevant protein (vivax malaria protein, VMP), in the presence or absence of 0.1 μg/mL MPLA. (B) Splenic DCs were incubated for 18 hr with 10 μg/mL […] peptide (OVA257-264), 5.0 μg/mL soluble OVA, equivalent doses of OVA loaded in ICMVs, or VMP-loaded ICMVs in the presence or absence of 0.05 μg/mL MPLA, and the extent of cross-presentation of OVA was assessed by flow cytometry analysis of cells stained with the 25-D1.16 mAb that recognizes […] complexed with H-2K^b. (C) 5-(6)-carboxyfluorescein diacetate succinimidyl diester (CFSE)-labeled OVA-specific naïve OT-I CD8^+ T-cells were co-cultured with syngeneic splenic DCs pulsed with soluble 0.7 μg/mL OVA mixed with 0.1 μg/mL MPLA, or equivalent doses of OVA-loaded ICMVs mixed with MPLA. Empty ICMVs without antigen or ICMVs loaded with the irrelevant antigen VMP were included as negative controls. Proliferation of CD8^+ T-cells was assessed on day 3 by flow cytometry analysis of the dilution of CFSE in the OT-I CD8^+ T-cells; shown are histograms of CFSE fluorescence. […]
# CD45.1+ recipient mice = test: Expansion of adoptively transferred OT-II CD4+ T-cells after immunization; format: in vivo, mouse; conditions: eight days post priming
# Method: (§2) Germinal center and follicular helper T cell analysis. Mice were immunized s.c. with 5 μg of MPLA and 100 μg of OVA-alexa fluor 555 in either soluble or ICMV formulations (lipids labeled with DiD). At serial time-points, dLNs were isolated, flash-frozen, cryo-sectioned, and examined by confocal microscopy. To identify cell types associated with particles, dLNs were isolated on d 1 or 4, stained with anti-CD11b, anti-CD11c, anti-CD169, anti-CD205, and F4/80, and analyzed by flow cytometry. To assess GC formation, dLNs were isolated on d14 from mice immunized with 1 μg of unlabeled soluble VMP or VMP-ICMVs (both with 0.1 μg MPLA), stained with anti-B220, anti-IgD, anti-GL-7 (BD), peanut agglutinin (Vectorlabs, Burlingame, Calif.), and analyzed by flow cytometry or confocal microscopy. To monitor antigen-specific CD4+ T-cells, […] OVA-specific CD4+ T cells from OT-II (CD45.2+) mice were adoptively transferred i.v. into recipient congenic CD45.1+ mice. After 1 d, recipient mice were immunized s.c. with 10 μg of OVA in either soluble or ICMV formulations, both with 1 μg MPLA. A second comparison group of mice were immunized s.c. with 100 μg OVA in alum. The frequencies of OVA-specific CD4+ T cells and their phenotypes in spleens and dLNs were determined by flow cytometry analysis, following staining with DAPI, anti-CD4, anti-CD45.2, anti-PD-1, and anti-CXCR5 (BD).
# mice [4] = test: Germinal center analysis in draining lymph nodes; format: in vivo, mouse; conditions: 100 ng VMP, with MPLA, histological analysis
# Method: as §2, with “To assess GC formation, dLNs were isolated on d14 from mice immunized with 1 μg of unlabeled soluble VMP or VMP-ICMVs (both with 0.1 μg MPLA), stained with anti-B220, anti-IgD, anti-GL-7 (BD), peanut agglutinin (Vectorlabs, Burlingame, Calif.), and analyzed by flow cytometry or confocal microscopy.” left out
# C57Bl/6 mice [5] = test: Epitope analysis of anti-VMP sera on VMP peptide fragments; format: in vivo, mouse; conditions: d 90
# Method: (§3) Immunizations. Animals were cared for following NIH, state, and local guidelines. Groups of 6-10-wk old female C57Bl/6 mice (Jackson Laboratories, Bar Harbor, Me.) were immunized s.c. at the tail base with VMP-ICMVs and indicated doses of MPLA (Sigma-Aldrich, St. Louis, Mo.) in 100 μL PBS on day 0 and 21. Control immunizations with soluble VMP were performed using MPLA, Montanide ISA-50 V2 (Seppic, N.J.), or alum (Imject alum, Pierce, Rockford, Ill.) at an adjuvant:protein solution vol. ratio of 1:1 following the manufacturer's instructions.
# (§4) Characterization of anti-VMP humoral responses. Sera were analyzed for IgG, IgG1, and IgG2c antibodies by ELISA using VMP-coated plates (Bell et al. 2009 Vaccine 27:1448-1453). Anti-VMP IgG titers were defined as the lowest serum dilution at which the ELISA OD reading was ≧0.5. Avidity measurements were performed by incubating plates with 6 M urea for 10 min at 20° C. to remove weakly bound IgG prior to addition of detection Ab. The avidity index was defined as (IgG titer with 6 M urea/IgG titer without urea)×100. […] Splenocytes isolated 7 d after boost vaccinations were restimulated ex vivo with either PBS or VMP-ICMV at 2 μg/ml, and on d2, cytokine levels in the culture supernatants were measured by flow cytometry (Cytometric Bead Array, BD).
# C57Bl/6 mice [6] = test: Example 3 immunization: anti-VMP IgG serum titers and isotypes by ELISA; format: in vivo, mouse
# Method: as §3, §4
# mice [7] = test: Antigen delivery to draining lymph nodes (histology at serial time-points); format: in vivo, mouse; conditions: s.c., with MPLA
# Method: as §2
molecule,measurement,setting,value
ovalbumin [soluble OVA],Antigen-specific T-cell expansion by tetramer staining,C57Bl/6 mice [1],barely detectable
same,Anti-OVA serum IgG response,C57Bl/6 mice [2],barely detectable antibody response
same,Proliferation of OT-I CD8+ T-cells,[3],weak T-cell responses
same,"Expansion of OT-II CD4+ T-cells in spleens, fold compared to PBS",CD45.1+ recipient mice,~6.3 fold
B1,GCs per dLN,mice [4],complete absence
same,Recognition of the AGDR motif by sera,C57Bl/6 mice [5],did not recognize
same,Fold more protein required to elicit a response than VMP-ICMVs,C57Bl/6 mice [6]; mixed with MPLA or adjuvanted with Montanide or alum,at least 10 fold
same,Antigen-specific IgG isotype response,"C57Bl/6 mice [6]; with MPLA, d 90",only Th2-skewed IgG1 antibodies
B2,Time at which antigen was detected in dLNs,mice [7],≤ 4 h
